Laboratory results: patent publication CN114262377A (XINJIANG YOUMAI BIOTECHNOLOGY CO LTD, dated 2022)

T1: human CD70-His (human, UniProt P32970 39-193, limits assumed)
T1 construct: also called 重组CD70蛋白; human CD70-His (Cat#CDL-H82D7); not shown: His tag
T1 sequence (looked up): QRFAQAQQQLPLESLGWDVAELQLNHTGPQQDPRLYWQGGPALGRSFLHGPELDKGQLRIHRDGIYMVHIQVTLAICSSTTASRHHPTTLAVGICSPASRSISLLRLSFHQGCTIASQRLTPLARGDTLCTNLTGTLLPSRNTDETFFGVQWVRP

T2: mouse CD70-His (mouse, UniProt O55237 45-195, limits assumed)
T2 construct: also called 鼠CD70; not shown: His tag
T2 sequence (looked up): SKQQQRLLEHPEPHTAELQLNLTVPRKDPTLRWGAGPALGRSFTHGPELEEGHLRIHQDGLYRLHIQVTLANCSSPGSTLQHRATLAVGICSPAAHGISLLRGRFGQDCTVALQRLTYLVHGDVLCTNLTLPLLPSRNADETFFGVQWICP

T3: CD70 on 卵巢癌细胞SKOV3 (UniProt P32970 1-193, limits assumed)
T3 construct: whole, on cells; also called 肿瘤细胞
T3 sequence (looked up): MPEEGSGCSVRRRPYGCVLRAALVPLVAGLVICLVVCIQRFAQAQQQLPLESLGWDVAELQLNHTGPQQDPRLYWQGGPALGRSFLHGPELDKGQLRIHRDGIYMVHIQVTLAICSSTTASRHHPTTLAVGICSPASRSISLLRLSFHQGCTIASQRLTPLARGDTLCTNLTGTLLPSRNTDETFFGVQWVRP

T4: mFc-CD70
T4 sequence (P32970 whole entry, species assumed, looked up): T3 sequence (looked up)

T5: cyno-CD70-His (cynomolgus monkey, UniProt A0A2K5WTU9 39-190)
T5 construct: also called 食蟹猴CD70蛋白; 猴CD70; not shown: His tag
T5 sequence: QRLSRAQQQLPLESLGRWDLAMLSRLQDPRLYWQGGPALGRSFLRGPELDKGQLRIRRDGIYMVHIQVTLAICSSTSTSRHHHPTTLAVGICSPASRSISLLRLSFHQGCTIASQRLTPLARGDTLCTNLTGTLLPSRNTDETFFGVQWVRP

B1: CHO细胞表达的含有人IgG-Fc结构域的CD70纳米抗体VHH-B3-Fc (Fc fusion)
chain: LQESGGGSVQAGGSLRLSCAASGIIVNDGCMAWFRQVPGKEREGVAGIVIGEYGGGTTYYADSVKGRFTISRDRAKNTLYLQMNSLKPEDTAMYYCAADQWASGGCTSIATFSDEFDYWGQGTQVTVSS
notes: Order VHH then Fc follows the printed name; also called XJ-B3; VHH-B3 (as named in the results of the Fc-format assays); not shown: human IgG Fc domain
B2: CHO细胞表达的含有人IgG-Fc结构域的CD70纳米抗体VHH-B6-Fc (Fc fusion)
chain: QVQLQESGGGSVQAGGSLRLSCVASDLIVNDGCMAWFRQVPGKEHEGVARIAIPTTPGSTLYADSVKGRFTISRDGAKNTLYLQMNSLKPEDTAVYYCAADQWASRGCTAIATIPAEFDYWGQGTQVTVSS
notes: Order VHH then Fc follows the printed name; also called XJ-B6; VHH-B6 (as named in the results of the Fc-format assays); not shown: human IgG Fc domain

Tests used:
human CD70-His [1] = target: T1, human CD70-His; assay: ELISA, human CD70-His coated 0.5 ug/ml, HRP-anti-human Fc
mouse CD70-His = target: T2, mouse CD70-His; assay: ELISA, mouse CD70-His coated 0.5 ug/ml, HRP-anti-human Fc
CD70 on 卵巢癌细胞SKOV3 = target: T3, CD70 on 卵巢癌细胞SKOV3; assay: flow cytometry (MFI) on SKOV3 cells, goat anti-human IgG Fc-FITC
mFc-CD70 = target: T4, mFc-CD70; assay: competition ELISA: blocks mFc-CD70 (75 ng/ml) binding to coated human CD27-His
human CD70-His [2] = target: T1, human CD70-His; assay: BLI (Fortebio), AHC sensor, antibody loaded at 4 ug/ml, human CD70-His trimer 60 nM in solution
cyno-CD70-His = target: T5, cyno-CD70-His; assay: ELISA, cyno-CD70-His coated 0.5 ug/ml, HRP-anti-human Fc

| Binder | EC50 (human CD70-His [1]) | binding result (mouse CD70-His) | EC50 (CD70 on 卵巢癌细胞SKOV3) | IC50 (mFc-CD70) | Kd (human CD70-His [2]) | EC50 (cyno-CD70-His) |
| --- | --- | --- | --- | --- | --- | --- |
| B1 | 0.0251 µg/mL | no binding | 374 pM | 0.06 µg/mL | < 1 pM |  |
| B2 | 0.0244 µg/mL | no binding | 1740 pM | 0.0576 µg/mL | < 1 pM | 0.00571 µg/mL |
